Data from US20250135039A1, “INHIBITOR-RESISTANT MGMT MODIFICATIONS AND MODIFICATION OF MGMT-ENCODING NUCLEIC ACIDS” (Ensoma, Inc., priority 2022, published 2025).
Numbering of substitutions follows the chain as printed. Names may count otherwise.

B1: S159Y: MGMT polypeptide with mutation S159Y (protein)
chain: MDKDCEMKRTTLDSPLGKLELSGCEQGLHEIKLLGKGTSAADAVEVPAPAAVLGGPEPLMQCTAWLNAYFHQPEAIEEFPVPALHHPVFQQESFTRQVLWKLLKVVKFGEVISYQQLAALAGNPKAARAVGGAMRGNPVPILIPCHRVVCSSGAVGNYYGGLAVKEWLLAHEGHRLGKPGLGGSSGLAGAWLKGAGATSGSPPAGRN
B2: G160E: MGMT polypeptide with mutation G160E (protein)
chain: B1 chain with Y159S, G160E
B3: wild-type MGMT: reference MGMT polypeptide according to SEQ ID NO: 1 (GenBank NP_002403.3); used as control (protein)
chain: B1 chain with Y159S
modifications: REGION 1..207: note = Wild Type MGMT
notes: used as control
B4: G160H: MGMT polypeptide with mutation G160H (protein)
chain: B1 chain with Y159S, G160H
B5: A170S: MGMT polypeptide with mutation A170S (protein)
chain: B1 chain with Y159S, A170S
B6: G160D: MGMT polypeptide with mutation G160D (protein)
chain: B1 chain with Y159S, G160D
B7: G160P: MGMT polypeptide with mutation G160P (protein)
chain: B1 chain with Y159S, G160P
B8: G160A: MGMT polypeptide with mutation G160A (protein)
chain: B1 chain with Y159S, G160A

Tested on: U251 human glioblastoma cell line
Experiment: in vitro FM-HCR assay of MGMT activity (mPlum O^6MeG reporter plasmid)
Format: cell-based
Settings: 100 μM O^6BG; U251 cells; flow cytometry 24 h after transfection; damaged/undamaged reporter; inversely related to MGMT activity
How it was run: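 U251 cells transfected with MGMT variant plasmid, mPlum O^6MeG reporter (or undamaged mPlum plasmid) and BFP control, in 100 μM O^6BG or 0.1% DMSO; flow cytometry at 24 h. mPlum count×intensity normalized to BFP; percent reporter expression = damaged/undamaged ×100, inversely related to MGMT activity.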

Molecule	Reporter expression (%) mean, O^6BG [%]
B1	142.7
B2	63.3
B3	70.0
B4	21.3
B5	85.0
B6	72.8
B7	47.5
B8	74.5

Same assay, conditions: 0.1% DMSO; U251 cells; flow cytometry 24 h after transfection; damaged/undamaged reporter; inversely related to MGMT activity

Molecule	Reporter expression (%) mean, DMSO [%]
B1	26.0
B2	15.3
B3	18.5
B4	10.3
B5	15.8
B6	23.0
B7	22.8
B8	15.5

Same assay, conditions: DMSO condition; determined from percent reporter expression

Molecule	MGMT activity (a.u.) DMSO [a.u.]
B1	3.85
B2	6.56
B3	5.41
B4	9.68
B5	6.35
B6	4.35
B7	4.40
B8	6.45

Same assay, conditions: DMSO condition; relative to wild-type MGMT in same condition

Molecule	MGMT activity (% of WT) DMSO
B1	71.2 % of WT
B2	121.3 % of WT
B3	100.0 % of WT
B4	179.0 % of WT
B5	117.5 % of WT
B6	80.4 % of WT
B7	81.3 % of WT
B8	119.4 % of WT

Same assay, conditions: MGMT activity (a.u.) in O^6BG divided by DMSO x 100; higher values indicate resistance

Molecule	Relative MGMT activity (%)
B1	18.2
B2	24.1
B3	26.4
B4	48.4
B5	18.5
B6	31.6
B7	47.9
B8	20.8

Same assay, conditions: O^6BG condition; determined from percent reporter expression

Molecule	MGMT activity (a.u.) O^6BG [a.u.]
B1	0.70
B2	1.58
B3	1.43
B4	4.69
B5	1.18
B6	1.37
B7	2.11
B8	1.34

Same assay, conditions: O^6BG condition; relative to wild-type MGMT in same condition

Molecule	MGMT activity (% of WT) O^6BG
B1	49.1 % of WT
B2	110.7 % of WT
B3	100.0 % of WT
B4	328.1 % of WT
B5	82.4 % of WT
B6	96.2 % of WT
B7	147.4 % of WT
B8	94.0 % of WT

Same assay, conditions: lower values indicate resistance to O^6BG

Molecule	Ratio percent reporter expression (O^6BG/DMSO)
B1	5.49
B2	4.15
B3	3.78
B4	2.06
B5	5.40
B6	3.16
B7	2.09
B8	4.81

Same assay, conditions: percentage difference in relative MGMT activity between variant and wild-type MGMT

Molecule	O^6BG resistance relative to WT (%)
B1	−31.0
B2	−8.8
B3	0.0
B4	83.3
B5	−29.9
B6	19.6
B7	81.2
B8	−21.3
